From a protein production outcome set (Wang et al. 2014)

Assay: label from the status in PepcDB records
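Also: failed if final PepcDB status was selected cloned or expressed and not failed if soluble or beyond.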

Row | Sequence | protein production
1 | MKQLSGLLGELRQKLCAGFPEQAGIQQLIFPAPGLVGRQLLEWLTAQTHFPQFYWRHRDNHEEAAVCGQTRSFADMKDADDFIQQNPDANGLRIWGLNAFEPVMVFGQLTDNGLVSGKNAQASFLFLPRLEILRRGKKTSLTLNLSSETSLQKDALQAITFIDQLMAARALPVLNARIQHSSHTPGYPQWRNLIQQALNDIEQQKLDKVVLARTTTLTLNKPLSCAAFMAASRQVNHRCYHFMLRFDDRQAFLGSSPERLYLRQQLHLETEALAGTVSNLDSDPQAAVLADWLMHDEKNQRENLLVVDDICQRLQGGVTAVDVMPPEIIRLRKVQHLRRRICAQLSRASDTDCLQRLQPTAAVAGLPREAARQFIAKHELFSRGWYAGSAGYLSLKRTEFSVALRSARVDGQQIHLYAGAGIVAGSDAEQEWQEIDNKSAGLQSLLEHEAQPVKA | not failed
2 | MLELCSIASGSSGNCICVGTDDCHVLIDAGISGKKIENGLNEFDMTATDMHGILVTHEHIDHIAGLGVMARRYHMPIYATKATIGAIKCTKSVGNIDDELFHPIEAGVDFTIGDIEFEPLHISHDAADPVAYRFKNENHAMAVVTDLGTYDDALVSKLQNLDGLLLEANHDINMLQTGAYPYPLKRRIMGDSGHLSNERSGQLLCELLHDKFGSVILGHLSKENNYEKLAYEAVRLEVTMGDNPYKASDFPMYVAKRDRASDRIAVE | failed
3 | DVDIQLVSSNNINDYLHVYDAFARPFGDSYANMVKQHIYSSYNLDDIERLVAYVNHQPVGIVDIIMTDKTIEIDGFGVLEEFQHQGIGSEIQAYVGRMANERPVILVADGKDTAKDMYLRQGYVYQGF | failed
4 | MSNAFEYLRTYVESTTETDAAVARAREDAAEFGLPAPDEMTGQLLTTLAATTNGNGSTGAIAITPAAGLVGLYILNGLADNTTLTCIDPESEHQRQAKALFREAGYSPSRVRFLLSRPLDVMSRLANDSYQLVFGQVSPMDLKALVDAAWPLLRRGGALVLADALLDGTIADQTRKDRDTQAARDADEYIRSIEGAHVARLPLGAGLTVVTKALEHHHHHH | not failed
5 | MTMFGKIFSKKTPKTDIKSNGEALNASEIEQFIKDTLSHYISDNFPQGVLAVCQQLSITQKKKITIKLLMPFVCQGELDLLAQTLSENLARTVNFEIDLAIKPVRQFSLGNDKNKAGQEGMLQGKVANIIAIASGKGGVGKSTTTVNLAYALMCEGARVGILDADIYGPSIPSMLGLKNEKPSSSDGKLMTPVDAKGLSAMSIGFLVDEADATVWRGPMASSAFNQLLNETDWPELDYLLIDMPPGTGDIQLTLAQKVPVAAAVIVTTPQDIALIDAVKGIAMFDKVKVPVLGIVENMSYHLCENCGHKSHIFGEAGGEHMAEDHETKLLGQLPLDITIRQDADFGESDIIENSAGEIANHYRKIARNVSAQLFLQCDTASPLTATVAHKALEHHHHHH | not failed
6 | MELGTPLLLTIAAAGIALLLVLIIRFKIQAFVALLAVSILVAVAAQIPLKDIFTVVTTGVGSTMGKVALLIALGAILGRMIEVSGGVQSLATHFTEKLGAKRVAIALTAVGFLVAIPVFFEVGVIVLVPIVYAFAKIANVHPIKFGLPMAGIMLSIHVAVPPHPGIVAGAGVFGADIGLITLISLIICIPLGFLSYWVASIMNRKDYELLPGVKQQVDEFGSDSLVHVGHDGPGARAIAPPRPGLIMFLIAAPIVQILLGTVGTLTLAKDNYWYGVAAFIGNPFFALLVAVALSFFLLAVRRNWSLKETGEIFEGALPPIASILMVVAAGGVFGEVLRASGIGAALSHTLDSLGLPVIVLGFIISLALRAAQGSATVAIVTTTGLLTSAVMEGGYTPAQIAVIVIAIGFGSLGLSHVTDAGFWTVIRYYGLTVSDGLKTWTVLTTILGLAGFALTYVAWILVGGLGH | failed
7 | MAVQLLENWLLKEQEKIQTKYRHLNHISVVEPNILFIGDSIVEYYPLQELFGTSKTIVNRGIRGYQTGLLLENLDAHLYGGAVDKIFLLIGTNDIGKDVPVNEALNNLEAIIQSVARDYPLTEIKLLSILPVNEREEYQQAVYIRSNEKIQNWNQAYQELASAYMQVEFVPVFDCLTDQAGQLKKEYTTDGLHLSIAGYQALSKSLKDYLY | not failed
8 | MRIVPFGAAREVTGSAHLLLAGGRRVLLDCGMFQGKEEARNHAPFGFDPKEVDAVLLTHAHLDHVGRLPKLFREGYRGPVYATRATVLLMEIVLEDALKVMDEPFFGPEDVEEALGHLRPLEYGEWLRLGALSLAFGQAGHLPGSAFVVAQGEGRTLVYSGDLGNREKDVLPDPSLPPLADLVLAEGTYGDRPHRPYRETVREFLEILEKTLSQGGKVLIPTFAVERAQEILYVLYTHGHRLPRAPIYLDSPMAGRVLSLYPRLVRYFSEEVQAHFLQGKNPFRPAGLEVVEHTEASKALNRAPGPMVVLAGSGMLAGGRILHHLKHGLSDPRNALVFVGYQPQGGLGAEIIARPPAVRILGEEVPLRASVHTLGGFSGHAGQDELLDWLQGEPRVVLVHGEEEKLLALGKLLALRGQEVSLARFGEGVPV | not failed
9 | MLKTLAVANYRSINKLVIPLGRLNLVTGANGSGKSNLYRALRLLAETAQGGVVNALAKEGGLESTYWAGPEQISRRMSQGEVPIQGGPRKAARRLQLGFAGEDFGYAISLGLPDSSGHFMLPGHSSPIASRFTLDPWIKRESIWGGPLYRSASALVDRQGPMIRARAGRQWEVLAQHTSSGDSLFDRVGNLSSSPEVLHLREQIRGWRFYDHLRTDSQAPARRPQLGTRTPVLHHDGRDLAAALQTIIEVGDQQALHETISDAFPESRLEIDAVPGGLFGVQFYQEGLLRPLSAAELSDGTLRYLLLVAALLTPRPPTLMVLNEPETSLHPDLLPALARLIIRASQQCQVWVVSHARRLIAALQQDPECNCIVLEKQLGQTGIVGQRMLDEPAWNWPDLEHHHHHH | failed
10 | MLKRTLLACLALSCSFPSYSADYITENLSTYMRKGAGDQYKIAGTIQAGEKITVLDRKDRFVLIRDSRNREGWVLNNEISQTASPKELIPELQQQIQDLSSKLNKIDNDWQQRTAEMQRRSQQAEQQSSELLDENTQLKRKLEVLKNKNRDLETMQDAEKREIVIQWFIYGGSVLTVGLLLGLLIPFILPRRRRNNGWSLEHHHHHH | failed
11 | MKFSYKFSNLLGTIYRNGNLVFTPDGNSVISPVGNRITVYDLKNNKSRTLSLESRYNYTNIALSPDGSLLIAVNEKGEAQLISMMSCTVIHRHKFQTGVQCICFSPNGAFFAVAVQNVVLIFCAPGEITGEYNPFVLRRRFLGGFDDVTWLDWSSDSRLLAIGCRDSSTKIVAINYTKNFRTYNLSGHTDAIVACFFEANSLHLNTISRNGQLCLWECSLAPSDLEDAERPKIAPPQRKKEKKAVSDNESEDDVENVVEKDALKEESTKEAEDVNHIKNEDETKSHPFFYKKITRHYLADEPRKEQRDVQLTAANYNTRTKVLVVAFSSGAFYLYELPDVNMIHSLSISDYPISAALFNCTGDWVALASREIGQLLVWEWQSEQYIMKQQGHSSEMTCIAYSSDGQFIATGGEDSKVKLWNTQSSFCFVTFSEHTSGVTGIQFSRNKKFLVSSSLDGTVRAFDVNRYRNFRTFTSPNPAQFSCVAVDYSGELVVAGGQDVFDIFLWSVKTGKLLEIISGHEGPVVSIAFSPVATSSTLVSGSWDKTVKIWNCLESNSEHETIDAVSDVTNVTFSPSGEEIAVATLSGNITIFDIKSAGQVTTIEGRNDLSAGRLETDIITARKNAQANYFSTIEYSADGECILAAGKSANICIYHVREAILLKKFEITQNHSLDGLNDFISRKHLSEFGNMALVEEREELEGGRVAIRLPGVQRGDMSSRRFQQEVRVFSVKFSPTGQAFAAAGTEGLCIYALDKGVVFDPFDLSLEVTPKAVHESLKQQNYTKALVMSLKLNEPNLIALVLERVPYKDVELVCADLSPEFAQRLLQQLARQLQSTPHIEFYLQWSCCLLTKHGNQDGVFQHTGLLALHEVLSRKYEMLNKICDYNKYTLKVLLDRADKLEQKNEGKPNATEEDSDEEMLLIRSKDDENGQAQFSDEEESDSGSEEEMA | failed
12 | MYKYITILGAAGQIAQKLTATLLTYTDMHITLYGRQLKTRIPPEIIDHERVTVIEGSFQNPGKLEQAVTNAEVVFVGAMESGSDMASIVKALSRKNIRRVIGVSMAGLSGEFPVALEKWTFDNLPISYVQGERQARNVLRESNLNYTILRLTWLYNDPEKTDYELIPEGAQFNDAQVSREAVVKAIFDILHAADETPFHRTSIGVGEPGTHYDKPSFH | not failed
13 | APAEIFNVVKYPAKLGDMYAYLTPPPANKKNKLPAVIWLNGGYGGIGGDDYFWTPQPVENDQTGATFRDPNMVLMIPSFRGENTNPGRYEMFYGELEDLDSAREYLASLPYVDPKRIYVVGHSTGGTRALLASEYSDKFRAIFSLGGIPDLKLRTEGRMMVELPFDKNNEEEFNVRSVYRYIKSIKTPTFYFEGHDYFWDEFNELRVVAMEHDIPLKIYNIKNGDHFNIIVPVSQLIKEKILQDTDTNKESNIRFTNEEIKWINKMVK | failed
14 | MSYQPTSLTVASYNLRNANGSDSARGDGWGQRYPVIAQMVQYHDFDIFGTQECFLHQLKDMKEALPGYDYIGVGRDDGKDKGEHSAIFYRTDKFDIVEKGDFWLSETPDVPSKGWDAVLPRICSWGHFKCKDTGFEFLFFNLHMDHIGKKARVESAFLVQEKMKELGRGKNLPAILTGDFNVDQTHQSYDAFVSKGVLCDSYEKCDYRYALNGTFNNFDPNSFTESRIDHIFVSPSFHVKRYGVLTDTYRSVRENSKKEDVRDCPEEITIKAYEARTPSDHFPVKVELVFDLEHHHHHH | not failed
15 | MARTIENMAKPASDMPPYDKAAALRGLAGARRVALLMAPRLGDTLLMMNMARNLAAHGREVSIFGDYIHGLRDWFPGLDIRPSLSEEQAGQVLPGYDCAAQMHVGWPYALHAHQPNYFYYDAHVAITGRGFVKLFQIRDFCREQLGLAQAGADNGLRPPPQVQPHRSHPRRVALHPTSTGAQRCWAPRHFKELGLRLLHEGYEPNYIVAPHERAEWSWVLDHGLHLPQFPSLSEVAGFIHASGWFIGNESGIGHLASNVGVPTLSLTGRPTRTRAWRPAWSTSRIVYPALIPGGRWRDRLWREWLSPRRVMSAFHKLQADDRRQPVGVPWGKI | failed
16 | MRAKITYAVTAAVLVVYFVLVGSRGVLLIQNGTLVTVTFGVAVLILPVIGVWFLWKNTQFVRKANALAAELDAEGGLPVDELRRTPGGRIDRDSADEVFARRKAETEDAPGDWRSWFRLAVAYHDARDTPRARKAMQRAIALHEGRPVEA | failed
17 | MYKDEMIQLHQFLVYVLKYLENGYDIKDECEEYFSLNISPHHIHRTKAEHKYAIFVLSSAISEILARKEGNNLPPNVVNGLSELARRSRKEVVKMEARLEAK | failed
18 | MGIREDIKTVFEKDPAARSTLEVLCCYPGLHAIWMHRVAHSLWNKDLLFLARLTSHISRALTGIEIHPGAKLGKRVFIDHGSGVVIGETAEVGDDVLIYMGVVLGGTALEKKKRHPTVENNAVLGSGAIVLGPITIGRGAKVGAGSVVVRSVPPEATVVGVPARIAGTPQPSAPSEQLDHNKLPDPVLTVISQVLDRMSRLEERFQAHEKASTTPVPVSFVSSENPSVKKDEQIYSLLKDVIDPAVGIDIVNLGFVKEVTVNGTNVDVNLVLTTSACPMIEYFRNQVKRKVMGIKGIENVTVNILDEPWKWDGAGRQAFH | failed
19 | MKFSVLMSLYVKEQPAFLAECLASLTAQSYPADEIVILYDGKVTAELEVVVQQYAPILPLKQVRFAENRGLGNTLNDGLKYCSHEWVFRMDSDDICDVDRFAKQVAFIQQHPDVVVFGGQIAEFGQNVQDIVAYRAVPTTHQQIVKFSRFRCPFNHMTVAYQKSKVLAVGGYQGLQEDYTLWIKMIASGFLTANLTDVLVYARVGNGMVGRRRNFTQFKYEWQLYRLKTQAKLHSRIVGLGIFALRAIPRILPLAILQRIYKLLRK | failed
20 | MKVKLFAIHLFFIVISFGIKYYHLQGPNLIWNMTLALIALDFAYLTSLFKKKILIGLFALAWFFFYPNTFYMLTDIIHMHFVGDVLYNKTNLILYILYVSSILFGFLSGIESFSVIMRKFRISNIFLRWGIIGIVSLVSSFGIHIGRYARLNSWDILTKPQVVINELLAVPSRDSFHFILGFTFLQVLCLIFMDYSAGKKLEK | failed
